According to article PMC5436001:

Molecular target: mMyrf N-terminal fragment (from N-terminally tagged wild-type mouse Myrf) (mouse)
Experiment: co-IP

stoichiometry N: 3
Substance: mMyrf N-terminal fragment (from N-terminally tagged wild-type mouse Myrf) (domain or fragment)
